Results on 1 molecule are retold here after patent US7262279B2, “Lactoferrin in the treatment of diabetes mellitus” (Agennix, Inc., priority 2003, dated 2007).

Common to all, as to type: in vivo
Experiment [1] has as its system non-insulin dependent diabetic mellitus (NIDDM) male mice C57BLK/J-m+/Lepr db. The experiment can be described thus: Serum glucose after oral rhLF for 15 days in diabetic db/db mice. The following applies: Day 15 Post (90 min after dosing), fasted 3 h, relative to placebo. Here is the method: RhLF (650 mg/kg and 65 mg/kg) and vehicle/placebo (rhLF diluent buffer pH 7.0) were administered orally once daily for 15 consecutive days to groups of 4 non-insulin dependent diabetic mellitus (NIDDM) male mice. […] All animals were allowed free access to normal laboratory chow and water. Blood samples were withdrawn from the orbital sinus immediately before dosing on day 1 (Day 1 Pre) and 90 minutes after the first administration on day 15 (Day 15 Post). The animals were fasted for 3 hours prior to sampling. Serum glucose levels were determined by enzymatic method (mutaratase-GOD). Four animals per cohort were studied. Reduction and p-value (1-tailed) were determined relative to placebo.

Experiment [2] concerns non-insulin dependent diabetic mellitus (NIDDM) male mice (C57BLK/J-m+/Lepr db). The experiment can be described thus: Serum insulin (ELISA) after oral rhLF for 15 days in diabetic mice. To be noted: 650 and 65 mg/kg orally once daily for 15 days, Day 15 Post, fasted 3 h. The protocol:
RhLF (650 and 65 mg/kg) and vehicle/placebo (rhLF diluent buffer pH 7.0) were administered orally once daily for 15 consecutive days to groups of 4 non-insulin dependent diabetic mellitus (NIDDM) male mice. […] All animals were allowed free access to normal laboratory chow and water. Blood samples were withdrawn from the orbital sinus immediately before dosing on day 1 (Day 1 Pre) and 90 minutes after the last administration on day 15 (Day 15 Post). The animals were fasted for 3 hours prior to sampling.

Experiment [3] has as its system non-insulin dependent diabetic mellitus (NIDDM) male mice (C57BLKS/J-m+/+Lepr db). The experiment can be described thus: Serum glucose and total body weight after oral rhLF for 20 days in diabetic mice. The following applies: 65 mg/kg orally via gavage once per day for 20 days. The protocol: Five groups of 6 non-insulin dependent diabetic mellitus (NIDDM) male mice (C57BLKS/J-m+/+Lepr db) weighing 50±grams and 9-10 weeks old were given either rhLF vehicle (Placebo), or RhLF (65 mg/kg) orally via gavage for 20 days (once per day) in a volume of 0.13 ml. Blood samples were obtained from the orbital sinus on day 0 and day 20 at 90 minutes following the last administration. Animals were fasted for 3 hours prior to sampling. Serum glucose levels were determined by enzymatic method (mutaratase-GOD). Total body weight measurements were determined on days 0 and 20. Percentage differences were determined with respect to pre-treatment values and analyzed statistically with the unpaired Student' t test. Differences were considered significant at p values of less than 0.05.

The test system is the same in experiment [4]. As to the kind of experiment: Serum glucose after topical rhLF gel for 20 days in diabetic mice. The following applies: RhLF gel (1%) topically, 0.2 mg per mouse once per day for 20 days onto a 12 mm punch excision; day 20; with respect to pre-treatment values. Here is the method:
Two groups of 6 non-insulin dependent diabetic mellitus (NIDDM) male mice (C57BLKS/J-m+/+Lepr db) weighing 50+grams and 9-10 weeks old were given either rhLF vehicle (Placebo), or RhLF gel (1%) topically (0.2 mg per mouse/once per day) for 20 days applied directly onto a 12 mm punch excision. Blood samples were obtained from the orbital sinus on day 0 and day 20 at 90 minutes. The animals were fasted for 3 hours prior to sampling. Serum glucose levels were determined by enzymatic method (mutaratase-GOD). Percentage differences were determined with respect to pre-treatment values and analyzed statistically with the unpaired Student' t test. Differences were considered significant at p values of less than 0.05 (FIG. 4).

B1: RhLF: Recombinant human lactoferrin, a single chain metal binding glycoprotein; given orally in diluent buffer or topically as 1% gel (protein, UniProt P02788 20-710, looked up)
Lactotransferrin: GRRRSVQWCAVSQPEATKCFQWQRNMRKVRGPPVSCIKRDSPIQCIQAIAENRADAVTLDGGFIYEAGLAPYKLRPVAAEVYGTERQPRTHYYAVAVVKKGGSFQLNELQGLKSCHTGLRRTAGWNVPIGTLRPFLNWTGPPEPIEAAVARFFSASCVPGADKGQFPNLCRLCAGTGENKCAFSSQEPYFSYSGAFKCLRDGAGDVAFIRESTVFEDLSDEAERDEYELLCPDNTRKPVDKFKDCHLARVPSHAVVARSVNGKEDAIWNLLRQAQEKFGKDKSPKFQLFGSPSGQKDLLFKDSAIGFSRVPPRIDSGLYLGSGYFTAIQNLRKSEEEVAARRARVVWCAVGEQELRKCNQWSGLSEGSVTCSSASTTEDCIALVLKGEADAMSLDGGYVYTAGKCGLVPVLAENYKSQQSSDPDPNCVDRPVEGYLAVAVVRRSDTSLTWNSVKGKKSCHTAVDRTAGWNIPMGLLFNQTGSCKFDEYFSQSCAPGSDPRSNLCALCIGDEQGENKCVPNSNERYYGYTGAFRCLAENAGDVAFVKDVTVLQNTDGNNNEAWAKDLKLADFALLCLDGKRKPVTEARSCHLAMAPNHAVVSRMDKVERLKQVLLHQQAKFGRNGSDCPDKFCLFQSETKNLLFNDNTECLARLHGKTTYEKYLGPQYVAGITNLKKCSTSPLLEACEFLRK
Take B1: the “reduction in serum glucose” value in experiment [1] (65 mg/kg orally once daily for 15 days) was 14.6%; in experiment [1] (650 mg/kg orally once daily for 15 days), 19.0%; in experiment [3] (day 20, 90 min after last administration, with respect to pre-treatment values), 13.8%. Moreover, the serum insulin levels entry in experiment [2] is recorded as “increase”. For the same molecule, the “reduction in body weight” value in experiment [3] (day 20 vs day 0) is given as 7.7%. The “reduction of serum glucose” value in experiment [4] worked out at 10.9%.
